Here are results for 16 molecules from patent US20160108123A1 (Novartis, published 2016).

Substitutions are numbered along the chain they refer to. Names may count otherwise.

B1: BAP058-hum01 (antibody, human IgG4 S228P, kappa, V domains shown)
VH: QVQLVQSGAEVKKPGASVKVSCKASGYTFTSYWMYWVRQATGQGLEWMGRIDPNSGSTKYNEKFKNRFTISRDDSKNTAYLQMNSLKTEDTAVYYCARDYRKGLYAMDYWGQGTTVTVSS
VL: DIVMTQTPLSLPVTPGEPASISCKASQDVGTAVAWYLQKPGQSPQLLIYWASTRHTGIPARFSGSGSGTEFTLTISSLQSEDFAVYYCQQYNSYPLTFGQGTKVEIKR
notes: Humanized IgG4(S228P)/human kappa mAb expressed in CHO cells
B2: BAP058-hum02 (antibody, human IgG4 S228P, kappa, V domains shown)
VH: B1 VH
VL: DIQMTQSPSSLSASVGDRVTITCKASQDVGTAVAWYLQKPGQSPQLLIYWASTRHTGVPSRFSGSGSGTDFTLTISSLQPEDFATYYCQQYNSYPLTFGQGTKVEIKR
notes: as for B1
B3: BAP058-hum07 (antibody, human IgG4 S228P, kappa, V domains shown)
VH: B1 VH with V37I, A40S, T41P, G42S, Q43R, M48L
VL: EIVLTQSPATLSLSPGERATLSCKASQDVGTAVAWYLQKPGQSPQLLIYWASTRHTGIPPRFSGSGYGTDFTLTINNIESEDAAYYFCQQYNSYPLTFGQGTKVEIKR
notes: as for B1
B4: BAP058-hum14 (antibody, human IgG4 S228P, kappa, V domains shown)
VH: B1 VH
VL: EIVLTQSPDFQSVTPKEKVTITCKASQDVGTAVAWYQQKPGQAPRLLIYWASTRHTGVPSRFSGSGSGTEFTLTISSLQPDDFATYYCQQYNSYPLTFGQGTKVEIKR
notes: as for B1
B5: BAP058-hum09 (antibody, human IgG4 S228P, kappa, V domains shown)
VH: EVQLVQSGAEVKKPGESLRISCKGSGYTFTSYWMYWIRQPPGKGLEWIGRIDPNSGSTKYNEKFKNRVTITADKSTSTAYMELSSLRSEDTAVYYCARDYRKGLYAMDYWGQGTTVTVSS
VL: B1 VL
notes: as for B1
B6: BAP058-hum16 (antibody, human IgG4 S228P, kappa, V domains shown)
VH: B1 VH with V37I, A40S, T41P, G42S, Q43R, M48L
VL: B4 VL
notes: as for B1
B7: BAP058-hum12 (antibody, human IgG4 S228P, kappa, V domains shown)
VH: EVQLVQSGAEVKKPGESLRISCKGSGYTFTSYWMYWVRQAPGQGLEWMGRIDPNSGSTKYNEKFKNRVTISVDTSKNQFSLKLSSVTAADTAVYYCARDYRKGLYAMDYWGQGTTVTVSS
VL: B2 VL with L37Q, S43A, Q45R, L73F, F83I
notes: as for B1
B8: BAP058-hum17 (antibody, human IgG4 S228P, kappa)
heavy: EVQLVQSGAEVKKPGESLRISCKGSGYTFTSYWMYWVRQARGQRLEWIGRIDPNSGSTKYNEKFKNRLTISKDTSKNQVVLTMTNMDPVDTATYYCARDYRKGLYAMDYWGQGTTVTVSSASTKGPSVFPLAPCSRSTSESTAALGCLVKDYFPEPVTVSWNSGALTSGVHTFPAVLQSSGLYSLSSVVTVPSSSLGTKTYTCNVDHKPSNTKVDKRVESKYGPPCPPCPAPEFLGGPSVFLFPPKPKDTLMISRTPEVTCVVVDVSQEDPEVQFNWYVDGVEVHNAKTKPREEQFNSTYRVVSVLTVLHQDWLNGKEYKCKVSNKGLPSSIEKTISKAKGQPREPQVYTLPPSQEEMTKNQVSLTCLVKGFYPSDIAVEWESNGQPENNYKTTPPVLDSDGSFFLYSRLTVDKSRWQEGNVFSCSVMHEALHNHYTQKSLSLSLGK
light: EIVLTQSPDFQSVTPKEKVTITCKASQDVGTAVAWYQQKPGQAPRLLIYWASTRHTGVPSRFSGSGSGTEFTLTISSLQPDDFATYYCQQYNSYPLTFGQGTKVEIKRTVAAPSVFIFPPSDEQLKSGTASVVCLLNNFYPREAKVQWKVDNALQSGNSQESVTEQDSKDSTYSLSSTLTLSKADYEKHKVYACEVTHQGLSSPVTKSFNRGEC
notes: as for B1
B9: BAP058-hum03 (antibody, human IgG4 S228P, kappa, V domains shown)
VH: B5 VH with E16A, S17T, L18V, R19K, G24V, I37V, P40A, P41T, K43Q, I48M
VL: EIVLTQSPDFQSVTPKEKVTITCKASQDVGTAVAWYLQKPGQSPQLLIYWASTRHTGVPDRFSGSGSGTDFTLKISRVEAEDVGVYYCQQYNSYPLTFGQGTKVEIKR
notes: as for B1
B10: BAP058-hum06 (antibody, human IgG4 S228P, kappa, V domains shown)
VH: B5 VH
VL: B4 VL with Q37L, A43S, R45Q, E70D, L73F, D81E, F83I
notes: as for B1
B11: BAP058-hum04 (antibody, human IgG4 S228P, kappa, V domains shown)
VH: B7 VH
VL: B4 VL with Q37L, A43S, R45Q, E70D, L73F, D81E, F83I
notes: as for B1
B12: BAP058-hum05 (antibody, human IgG4 S228P, kappa, V domains shown)
VH: EVQLVQSGAEVKKPGATVKISCKVSGYTFTSYWMYWIRQSPSRGLEWLGRIDPNSGSTKYNEKFKNRLTISKDTSKNQVVLTMTNMDPVDTATYYCARDYRKGLYAMDYWGQGTTVTVSS
VL: B4 VL with Q37L, A43S, R45Q, E70D, L73F, D81E, F83I
notes: as for B1
B13: BAP058-hum15 (antibody, human IgG4 S228P, kappa, V domains shown)
VH: B5 VH
VL: B4 VL
notes: as for B1
B14: BAP058-hum08 (antibody, human IgG4 S228P, kappa)
heavy: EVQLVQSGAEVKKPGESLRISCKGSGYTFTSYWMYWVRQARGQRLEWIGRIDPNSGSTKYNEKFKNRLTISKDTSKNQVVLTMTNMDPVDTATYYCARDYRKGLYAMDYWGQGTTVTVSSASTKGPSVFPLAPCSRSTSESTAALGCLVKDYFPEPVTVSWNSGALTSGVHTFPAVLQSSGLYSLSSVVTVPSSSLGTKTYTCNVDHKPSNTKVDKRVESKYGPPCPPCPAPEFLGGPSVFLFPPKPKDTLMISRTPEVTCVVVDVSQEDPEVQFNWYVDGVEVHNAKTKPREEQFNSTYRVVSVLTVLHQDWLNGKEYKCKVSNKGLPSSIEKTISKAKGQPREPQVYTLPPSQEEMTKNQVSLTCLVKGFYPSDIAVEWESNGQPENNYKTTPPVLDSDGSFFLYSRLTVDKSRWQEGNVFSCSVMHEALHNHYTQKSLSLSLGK
light: DVVMTQSPLSLPVTLGQPASISCKASQDVGTAVAWYQQKPGQAPRLLIYWASTRHTGVPSRFSGSGSGTEFTLTISSLQPDDFATYYCQQYNSYPLTFGQGTKVEIKRTVAAPSVFIFPPSDEQLKSGTASVVCLLNNFYPREAKVQWKVDNALQSGNSQESVTEQDSKDSTYSLSSTLTLSKADYEKHKVYACEVTHQGLSSPVTKSFNRGEC
notes: as for B1
B15: chimeric mAb BAP058-chi (antibody, V domains shown)
VH: EVQLQQSGAELVKPGASVKLSCKASGYTFTSYWMYWVKQGPGRGLEWIGRIDPNSGSTKYNEKFKNKATLTVDKSSSTAYMQLSSLTSEDSAVYYCARDYRKGLYAMDYWGQGTTVTVSS
VL: DIMMTQSHKFMSTSVGDRVSITCKASQDVGTAVAWYQQKPGQSPKLLIYWASTRHTGVPDRFTGSGSGTDFTLTISNVQSEDLADYFCQQYNSYPLTFGQGTKVEIK
notes: also called chimeric antibody; the chimera
B16: BAP058-hum10 (antibody, human IgG4 S228P, kappa, V domains shown)
VH: QITLKESGPTLVKPTQTLTLTCTFSGYTFTSYWMYWVRQAPGKGLEWVSRIDPNSGSTKYNEKFKNRVTITADKSTSTAYMELSSLRSEDTAVYYCARDYRKGLYAMDYWGQGTTVTVSS
VL: DVVMTQSPLSLPVTLGQPASISCKASQDVGTAVAWYQQKPGQAPRLLIYWASTRHTGVPSRFSGSGSGTEFTLTISSLQPDDFATYYCQQYNSYPLTFGQGTKVEIKR
notes: as for B1

T2 sequence (Q9NZQ7 19-238 limits assumed): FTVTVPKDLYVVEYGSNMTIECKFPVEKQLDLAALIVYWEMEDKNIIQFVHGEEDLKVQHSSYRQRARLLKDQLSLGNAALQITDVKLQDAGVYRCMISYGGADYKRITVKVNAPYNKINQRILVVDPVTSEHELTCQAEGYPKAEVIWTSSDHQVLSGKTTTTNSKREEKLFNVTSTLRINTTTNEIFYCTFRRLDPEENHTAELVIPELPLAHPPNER
mouse PD-L1 protein, sequence (Q9EP73 19-238 limits assumed): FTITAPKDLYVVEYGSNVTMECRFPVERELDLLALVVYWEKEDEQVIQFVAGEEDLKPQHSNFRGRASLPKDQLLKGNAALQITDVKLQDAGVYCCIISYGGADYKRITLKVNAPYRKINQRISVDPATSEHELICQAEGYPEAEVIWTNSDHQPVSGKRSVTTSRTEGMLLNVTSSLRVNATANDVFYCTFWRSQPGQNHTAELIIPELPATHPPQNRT
rat PD-L1 protein, sequence (D4AE25 entry or part of it limits assumed): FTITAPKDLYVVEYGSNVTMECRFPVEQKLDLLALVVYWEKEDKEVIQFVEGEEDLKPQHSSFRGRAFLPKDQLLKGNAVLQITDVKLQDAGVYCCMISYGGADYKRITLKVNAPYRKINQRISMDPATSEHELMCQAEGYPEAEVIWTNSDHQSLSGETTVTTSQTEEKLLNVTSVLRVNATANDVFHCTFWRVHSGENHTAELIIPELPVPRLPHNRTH

In one experiment the target is T1, human PD-L1 expressed on 300.19 cells (human, UniProt Q9NZQ7 19-290).
T1 construct: whole, on cells; also called huPD-L1; PD-L1-expressing 300.19 cells
T1 sequence (Q9NZQ7 19-290): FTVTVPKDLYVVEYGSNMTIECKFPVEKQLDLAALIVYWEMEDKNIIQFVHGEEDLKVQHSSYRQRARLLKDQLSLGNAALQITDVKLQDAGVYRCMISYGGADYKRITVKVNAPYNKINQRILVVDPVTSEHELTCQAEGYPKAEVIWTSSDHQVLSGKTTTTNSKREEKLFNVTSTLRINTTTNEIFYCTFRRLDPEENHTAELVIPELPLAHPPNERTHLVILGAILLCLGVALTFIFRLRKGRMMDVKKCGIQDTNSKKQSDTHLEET
Briefly: competition FACS against Alexa 488-labeled murine BAP058 on PD-L1-expressing 300.19 cells. As for the experimental part:
Incubations with the mAb mixtures having different concentration ratios of test mAb to labeled mAb was at 4° C. for 30 min. Bound labeled murine mAb was then quantified using a FACS machine. The experiment was performed twice.
B1: the “Comp. binding (ratio conc. test mAb / conc. labelled murine BAP058 at the IC50)” value turned out to be 2.56.
Regarding B2, the “Comp. binding (ratio conc. test mAb / conc. labelled murine BAP058 at the IC50)” value came out at 2.14.
Same read-out and setting: the result for B3 reads 1.8.
Take B4: the “Comp. binding (ratio conc. test mAb / conc. labelled murine BAP058 at the IC50)” value was 4.59.
Same read-out and setting: the same measure for B5: 1.96; for B6: 2.47.
Consider B7, for which the “Comp. binding (ratio conc. test mAb / conc. labelled murine BAP058 at the IC50)” value amounted to 2.27.
Consider B8, for which the “Comp. binding (ratio conc. test mAb / conc. labelled murine BAP058 at the IC50)” value is 2.16.
For B9, the “Comp. binding (ratio conc. test mAb / conc. labelled murine BAP058 at the IC50)” value stood at 1.87.
Still for that read-out and setting: the result for B10 reads 1.39; that for B11, 1.13.
Still for that read-out and setting: the same measure for B12: 1.71; for B13: 4.64; for B14: 3.38.

A further experiment addresses T1, human PD-L1 expressed on 300.19 cells. Briefly: blocking of PE-labelled PD-1-Ig (0.7 µg/mL) binding to PD-L1-expressing 300.19 cells, FACS, 4 C, 4 h. As for the experimental part:
Bound fluorescence was then measured using FACS and IC₅₀ values determined using Prism software.
For B3, the “IC50 (read off the curve)” value was about 0.04 µg/mL.
On to B15, for which the “IC50 (read off the curve)” value was about 0.04 µg/mL.
The same measure, in the same setting: the same measure for B9: about 0.04 µg/mL; for B11: about 0.04 µg/mL.

The target of a further experiment is rat PD-L1 protein (rat, UniProt D4AE25 19-239). The experiment can be described thus: Biacore T-100; IgG captured by anti-human Fab on CM5 chip, PD-L1 flowed over (100-1.56 nM), 1:1 fit. The method, then:
(§1) Immobilization was done at 25° C. using a flow rate of 10 μl/min. […] Test antibody was captured on Flow cell FC2, FC3 and FC4. […] Run Biacore Wizards Kinetic/Affinity: association time 120 sec, dissociation 600 sec. (Running buffer HBS-EP+BSA 0.25 mg/ml, Regeneration buffer: 10 mM glycine HCl pH 2.1). Data analyses were done with Biacore T-100 Evaluation software version 2, fit on 1:1.
For orientation: SPR reads the build-up and loss of mass on a sensor chip optically.
The Kd is a measure of binding affinity in units of concentration. A high value points to a looser complex. B11 gave a Kd of 6.14 nM.

The target of a further experiment is mouse PD-L1 protein (mouse, UniProt Q9EP73 19-238, limits assumed). The description is as above. As for the experimental part:
as §1
In turn, B11 returned a Kd of 77.4 nM.

A further experiment addresses T2, human PD-L1 protein (human, UniProt Q9NZQ7 19-238, limits assumed).
T2 construct: Construct not described
Described as above. The method, then:
as §1
Molecule B11 gave a Kd of 2.14 nM.

The target in a further experiment is T3, cynomolgus PD-L1 protein (cynomolgus, UniProt G7PSE7 19-238).
T3 construct: also called Monkey PD-L1; cyno PD-L1
T3 sequence (G7PSE7 entry or part of it): as the sequence (Q9NZQ7 19-238 limits assumed) above, with A33T, A34S, S62N, R68Q, Q82R, F173L, T185A, T192I, H215L counted along it
Described as above. As for the experimental part: as §1
With B11, the affinity, expressed as Kd, was 0.369 nM.

Another experiment addresses T1, human PD-L1 expressed on 300.19 cells. Briefly: semi-quantitative ranking in the binding studies (4th column, p-1058; FACS data, p-1056); high number = poorer binder; the column's head says only 'Rank'.
B1 showed a Rank of 17.
As for B2, the Rank turned out to be 17.
Turning to B3, the Rank was found to be 2.
Still for that read-out and setting: the same measure for B4: 4.
In the case of B5, the Rank is 3.
The same measure, in the same setting: the result for B6 reads 4.
B7 showed a Rank of 4.
On the same count and under the same terms, the same measure for B8: 4; for B16: 4.
In turn, B9 gave a Rank of 1.
The same measure, in the same setting: the result for B10 reads 2; that for B11, 3; that for B12, 2.
The same measure, in the same setting: the result for B13 reads 17; that for B14, 17.
